# System: Escherichia coli TOP10
# Experiment: shrunken log2 fold change of peptide-encoding DNA abundance (4.5 h post-induction vs induction); higher = less antimicrobial activity (less host growth inhibition)
# Conditions: time post-induction: 4.5 h; library: site-saturation at positions 5, 18, 19, 20
# 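Further: peptides expressed intracellularly from a pBAD plasmid library in pooled LB shake-flask culture, induced with 0.3% L-arabinose, DNA abundance read by NGS, three biological replicates, DESeq2 with apeglm shrinkage.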
row,Sequence,shrunken log2 fold change
1,RRIRSRPPRLPRPRPRPARFPRP,0.181
2,RRIRWRPPRLPRPRPRPQGVPRP,0.198
3,RRIRPRPPRLPRPRPRPIWTPRP,-0.262
4,RRIRRRPPRLPRPRPRPALDPRP,0.586
5,RRIRMRPPRLPRPRPRPKLWPRP,1.41
6,RRIRERPPRLPRPRPRPCSNPRP,0.0168
7,RRIRIRPPRLPRPRPRPNCRPRP,-0.0156
8,RRIRRRPPRLPRPRPRPMQRPRP,0.24
9,RRIRIRPPRLPRPRPRPEYGPRP,-0.0842
10,RRIRRRPPRLPRPRPRPILLPRP,-0.149
11,RRIRRRPPRLPRPRPRPKWWPRP,0.579
12,RRIRHRPPRLPRPRPRPTSKPRP,-0.125
13,RRIRKRPPRLPRPRPRPKGHPRP,0.123
14,RRIRLRPPRLPRPRPRPHNAPRP,1.08
15,RRIRKRPPRLPRPRPRPGVWPRP,0.786
16,RRIRGRPPRLPRPRPRPMCRPRP,0.393
17,RRIRHRPPRLPRPRPRPNYYPRP,-0.639
18,RRIRWRPPRLPRPRPRPSVDPRP,0.0991
19,RRIRFRPPRLPRPRPRPFQAPRP,-0.91
20,RRIRERPPRLPRPRPRPTEQPRP,-0.00926
21,RRIRERPPRLPRPRPRPLRPPRP,0.889
22,RRIRCRPPRLPRPRPRPSDYPRP,-1.15
23,RRIRPRPPRLPRPRPRPGTDPRP,0.119
24,RRIRVRPPRLPRPRPRPFVKPRP,-0.199
25,RRIRPRPPRLPRPRPRPKQIPRP,0.0957

row,Sequence,shrunken log2 fold change
1,RRIRPRPPRLPRPRPRPVCMPRP,0.132
2,RRIRSRPPRLPRPRPRPFCDPRP,-0.353
3,RRIRARPPRLPRPRPRPMMAPRP,0.466
4,RRIRDRPPRLPRPRPRPFDNPRP,0.0553
5,RRIRDRPPRLPRPRPRPNYDPRP,-0.211
6,RRIRFRPPRLPRPRPRPKVNPRP,-0.266
7,RRIRGRPPRLPRPRPRPPAPPRP,1.6
8,RRIRCRPPRLPRPRPRPEGVPRP,2.48
9,RRIRQRPPRLPRPRPRPQAPPRP,0.233
10,RRIRTRPPRLPRPRPRPVLPPRP,0.0511
11,RRIRMRPPRLPRPRPRPMFSPRP,-0.125
12,RRIRKRPPRLPRPRPRPFPAPRP,0.341
13,RRIRIRPPRLPRPRPRPMCGPRP,-0.0603
14,RRIRMRPPRLPRPRPRPVANPRP,0.331
15,RRIRLRPPRLPRPRPRPNRLPRP,-0.0858
16,RRIRKRPPRLPRPRPRPQHSPRP,-0.288
17,RRIRWRPPRLPRPRPRPRVVPRP,0.655
18,RRIRKRPPRLPRPRPRPNMSPRP,-0.0139
19,RRIRMRPPRLPRPRPRPDEYPRP,1.62
20,RRIRTRPPRLPRPRPRPIQKPRP,-0.00925
21,RRIRCRPPRLPRPRPRPSFKPRP,-0.75
22,RRIRNRPPRLPRPRPRPSDLPRP,-0.256
23,RRIRARPPRLPRPRPRPSRQPRP,0.373
24,RRIRSRPPRLPRPRPRPLMKPRP,0.0556
25,RRIRNRPPRLPRPRPRPLNNPRP,-0.478

row,Sequence,shrunken log2 fold change
1,RRIRQRPPRLPRPRPRPQPWPRP,0.141
2,RRIRERPPRLPRPRPRPCLRPRP,0.0836
3,RRIRWRPPRLPRPRPRPALGPRP,0.645
4,RRIRWRPPRLPRPRPRPFEDPRP,0.104
5,RRIRSRPPRLPRPRPRPWNCPRP,-0.223
6,RRIRSRPPRLPRPRPRPFWNPRP,-0.139
7,RRIRARPPRLPRPRPRPKNEPRP,0.215
8,RRIRHRPPRLPRPRPRPFGPPRP,-0.247
9,RRIRERPPRLPRPRPRPWIVPRP,-0.00567
10,RRIRKRPPRLPRPRPRPDVDPRP,1.8
11,RRIRCRPPRLPRPRPRPMVFPRP,-0.0164
12,RRIRNRPPRLPRPRPRPECVPRP,-0.127
13,RRIRGRPPRLPRPRPRPVLCPRP,0.635
14,RRIRMRPPRLPRPRPRPKKYPRP,1.26
15,RRIRRRPPRLPRPRPRPEYRPRP,-0.0195
16,RRIRSRPPRLPRPRPRPAYPPRP,0.0454
17,RRIRSRPPRLPRPRPRPPLKPRP,0.0467
18,RRIRWRPPRLPRPRPRPCPWPRP,-0.0137
19,RRIRFRPPRLPRPRPRPTYGPRP,-0.252
20,RRIRDRPPRLPRPRPRPSDEPRP,0.406
21,RRIRHRPPRLPRPRPRPQSQPRP,-0.127
22,RRIRNRPPRLPRPRPRPNNCPRP,-0.0864
23,RRIRPRPPRLPRPRPRPYQIPRP,-0.314
24,RRIRKRPPRLPRPRPRPKYPPRP,0.0162
25,RRIRKRPPRLPRPRPRPCGSPRP,-0.0192

row,Sequence,shrunken log2 fold change
1,RRIRNRPPRLPRPRPRPYKHPRP,-0.819
2,RRIRMRPPRLPRPRPRPVPQPRP,0.7
3,RRIRCRPPRLPRPRPRPMSIPRP,-0.484
4,RRIRQRPPRLPRPRPRPTPNPRP,0.333
5,RRIRERPPRLPRPRPRPRHSPRP,-0.137
6,RRIRGRPPRLPRPRPRPECKPRP,0.841
7,RRIRMRPPRLPRPRPRPVKAPRP,-0.0481
8,RRIRARPPRLPRPRPRPNASPRP,0.711
9,RRIRARPPRLPRPRPRPCLIPRP,-0.191
10,RRIRFRPPRLPRPRPRPDNYPRP,-0.12
11,RRIRHRPPRLPRPRPRPANAPRP,-0.0554
12,RRIRQRPPRLPRPRPRPRQMPRP,0.297
13,RRIRYRPPRLPRPRPRPETTPRP,-0.289
14,RRIRVRPPRLPRPRPRPNYHPRP,-0.489
15,RRIRNRPPRLPRPRPRPKECPRP,0.00801
16,RRIRRRPPRLPRPRPRPHPWPRP,0.25
17,RRIRERPPRLPRPRPRPRYFPRP,-0.54
18,RRIRNRPPRLPRPRPRPQAIPRP,0.00297
19,RRIRQRPPRLPRPRPRPRFMPRP,0.137
20,RRIRMRPPRLPRPRPRPEGWPRP,3.15
21,RRIRKRPPRLPRPRPRPNEWPRP,0.0498
22,RRIRSRPPRLPRPRPRPARQPRP,-0.0654
23,RRIRQRPPRLPRPRPRPAFHPRP,-0.0711
24,RRIRVRPPRLPRPRPRPVPAPRP,0.391
25,RRIRCRPPRLPRPRPRPQQQPRP,0.339

row,Sequence,shrunken log2 fold change
1,RRIRARPPRLPRPRPRPKGTPRP,0.233
2,RRIRARPPRLPRPRPRPLHPPRP,0.256
3,RRIRGRPPRLPRPRPRPNTCPRP,0.103
4,RRIRRRPPRLPRPRPRPADDPRP,0.213
5,RRIRVRPPRLPRPRPRPYFHPRP,-0.738
6,RRIRLRPPRLPRPRPRPMPDPRP,-0.00255
7,RRIRCRPPRLPRPRPRPCYIPRP,-0.0945
8,RRIRLRPPRLPRPRPRPCKSPRP,-0.264
9,RRIRQRPPRLPRPRPRPRTWPRP,-0.182
10,RRIRWRPPRLPRPRPRPQNGPRP,0.00668
11,RRIRNRPPRLPRPRPRPEDNPRP,0.0315
12,RRIRPRPPRLPRPRPRPEYRPRP,0.0278
13,RRIRWRPPRLPRPRPRPCTGPRP,-0.0547
14,RRIRVRPPRLPRPRPRPGNQPRP,-0.284
15,RRIRIRPPRLPRPRPRPSEKPRP,-0.195
16,RRIRQRPPRLPRPRPRPNNDPRP,-0.624
17,RRIRGRPPRLPRPRPRPPLWPRP,1.09
18,RRIRVRPPRLPRPRPRPAHGPRP,0.0221
19,RRIRNRPPRLPRPRPRPTIVPRP,-0.0363
20,RRIRGRPPRLPRPRPRPYQPPRP,-0.257
21,RRIRIRPPRLPRPRPRPCVPPRP,-0.162
22,RRIRLRPPRLPRPRPRPFICPRP,-0.426
23,RRIRVRPPRLPRPRPRPNCEPRP,3.97
24,RRIRKRPPRLPRPRPRPVNQPRP,-0.145
25,RRIRIRPPRLPRPRPRPFSAPRP,-0.517

row,Sequence,shrunken log2 fold change
1,RRIRCRPPRLPRPRPRPNNNPRP,-0.797
2,RRIRQRPPRLPRPRPRPMTPPRP,0.126
3,RRIRDRPPRLPRPRPRPGHEPRP,-0.00201
4,RRIRYRPPRLPRPRPRPPQNPRP,0.191
5,RRIRERPPRLPRPRPRPDGLPRP,0.0424
6,RRIRERPPRLPRPRPRPSEAPRP,0.134
7,RRIRARPPRLPRPRPRPPIKPRP,-0.0438
8,RRIRSRPPRLPRPRPRPRSCPRP,0.108
9,RRIRARPPRLPRPRPRPETYPRP,0.0388
10,RRIRNRPPRLPRPRPRPVFVPRP,-0.123
11,RRIRCRPPRLPRPRPRPRFCPRP,0.071
12,RRIRVRPPRLPRPRPRPRAFPRP,0.294
13,RRIRTRPPRLPRPRPRPHEMPRP,0.0124
14,RRIRERPPRLPRPRPRPVDCPRP,0.0769
15,RRIRWRPPRLPRPRPRPQCLPRP,-0.073
16,RRIRERPPRLPRPRPRPCVNPRP,-0.182
17,RRIRFRPPRLPRPRPRPEQEPRP,-0.159
18,RRIRNRPPRLPRPRPRPPSIPRP,-0.0153
19,RRIRQRPPRLPRPRPRPSVSPRP,-0.000735
20,RRIRNRPPRLPRPRPRPRRAPRP,0.604
21,RRIRERPPRLPRPRPRPQTIPRP,-0.378
22,RRIRERPPRLPRPRPRPKMWPRP,-0.0633
23,RRIRQRPPRLPRPRPRPVACPRP,-0.0393
24,RRIRNRPPRLPRPRPRPTDCPRP,-0.484
25,RRIRTRPPRLPRPRPRPHFYPRP,-0.224

# Source: the supplement of paper PMC9112550, “Optimization of the antimicrobial peptide Bac7 by deep mutational scanning” (BMC Biology, 2022)
